Data from patent publication US20220389077A1, “ALLOGENEIC CELL COMPOSITIONS AND METHODS OF USE” (Poseida Therapeutics, Inc., priority 2018, published 2022).

Assays:
Allo CAR-T cells = assay: Expansion of Allo CAR-T cells with WT or mutant (D111H) CSR CD2z; type: cell-based, human; conditions: up to 15-day culture; CSR stable or transient
From the text: FIG. 24A is a bar graph showing that the delivery of CSR CD2z-D111H mutant enhances the expansion of Allo CAR-T cells. Pan T cells isolated from healthy donor blood were genetically modified using the piggyBac® DNA modification system in combination with the Cas-CLOVER™ gene-editing system (CC) for the production of allogeneic (Allo) CAR-T cells, or without CC gene-editing, as a control, for the production of autologous (Auto) CAR-T without a CSR (No CSR); auto CAR-T cells were produced by nucleofection of an mRNA encoding the super piggyBac™ transposase enzyme (SPB) and a transposon encoding a CAR, selection gene and a safety switch. […] Following EP, all cells were subsequently stimulated with a cocktail of agonist mAbs anti-CD2, anti-CD3 and anti-CD28, and were later selected for genetic modification over the course of up to a 15-day culture period using the selection gene. At the end of the initial culture period, all T cells expressed the CAR, indicating successful selection for genetically-modified cells (data not shown), and then all non-edited TCR-positive cells were depleted via negative selection to yield a population of Allo CAR-T cells that were >99% TCR-negative (data not shown).

human CD58 = molecular target: T1, human CD58 (Homo sapiens, UniProt P19256); assay: T cell degranulation (CD107a) against CD58-positive cell targets; type: cell-based; conditions: 4-6 hours coculture; K562 or Rat2 cells with mRNA encoding human CD58
T1 construct: expressed in transfected cells; host or cells: K562 (electroporated) or Rat2 (lipofected) cells
T1 sequence (P19256 29-250): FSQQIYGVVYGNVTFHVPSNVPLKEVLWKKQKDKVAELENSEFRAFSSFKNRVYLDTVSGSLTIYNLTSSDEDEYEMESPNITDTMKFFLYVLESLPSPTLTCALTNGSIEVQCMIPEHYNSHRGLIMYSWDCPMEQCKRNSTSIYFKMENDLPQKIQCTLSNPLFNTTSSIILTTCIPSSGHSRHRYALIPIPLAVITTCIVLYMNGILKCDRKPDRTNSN
Method: FIG. 23B is a series of bar graphs showing CSR CD2z mutant degranulation data. The panel of CSR CD2z mutants was tested for the capability of mediating degranulation against CD58-positive cell targets. T cell degranulation is a surrogate of T cell killing that can be measured by FACS staining for intracellular CD107a expression following coculture with target cell lines expressing target antigen. Specifically, pan T cells from normal blood donors were stimulated with anti-CD3/anti-CD28 beads in standard T cell culture media, then rested. These cells were then electroporated (BTX ECM 830 electroporator @ 500V for 700 μs) with 9 μg of mRNA expressing CSR CD2z mutants and cultured overnight. The next day, the cells were cocultured for 4-6 hours in the presence of various target cell lines. Positive target cell lines included K562 cells or Rat2 cells that were electroporated or lipofected, respectively, with mRNA encoding human CD58, while negative controls were either Rat2 cells that were not electroporated or CSR CD2z mutant expressing T cells alone.
FIG. 23C is a summary of staining and degranulation data. Data from surface-expression and binding studies, as well as those from degranulation experiments for each CSR CD2z mutant is summarized in the table.
FIG. 23D is a series of flow cytometry plots showing the expression of CD48, CD58 or CD59 on K562 and Rat2 cells. To confirm possible ligands for the CSR WT CD2z molecule, a panel of known and suspected ligands including human CD48, CD58, and CD59 were tested. Degranulation of engineered T cells was evaluated against the cell lines K562 and Rat2 that were made to overexpress the target ligands and confirmed for expression by FACS staining. Red histograms are unstained cells and blue histograms are cells that were electroporated/lipofected with mRNA and then stained for expression of the respective marker by FACS.
FIG. 23E is a bar graph showing that CSR CD2z recognizes human CD58, but not CD48 or CD59. To confirm possible ligands for the CSR WT CD2z molecule, a panel of known and suspected ligands including human CD48, CD58, and CD59 were tested. Degranulation of engineered T cells was evaluated against the cell lines K562 and Rat2 that were made to overexpress the target ligands and confirmed for expression by FACS staining. Cells were electroporated/lipofected with mRNA and then stained for expression of the respective marker by FACS. As a control, a BCMA CAR was included as well as a K562 cell line overexpressing BCMA. In addition, T cells transfected with GFP were also included as a control. T cell degranulation is a surrogate of T cell killing that can be measured by FACS staining for intracellular CD107a expression following coculture with target cell lines expressing target antigen. Pan T cells from normal blood donors were stimulated with anti-CD3/anti-CD28 beads in standard T cell culture media, then rested. These T cells were then electroporated with mRNA expressing CSR WT CD2z, BCMA CAR, or GFP and cultured overnight. The next day, the cells were cocultured for 4-6 hours in the presence of the various target cell lines that were electroporate/lipofected with mRNA encoding human CD48, CD58 or CD59, while negative controls were either K562 or Rat2 cells that were not electroporated/lipofected, or each of the electroporated T cells alone.

B1: CD2z CSR: chimeric stimulatory receptor: CD2 signal peptide, extracellular, transmembrane and cytoplasmic domains with CD3z intracellular domain (SEQ ID NO: 17062) (protein)
chain: MSFPCKFVASFLLIFNVSSKGAVSKEITNALETWGALGQDINLDIPSFQMSDDIDDIKWEKTSDKKKIAQFRKEKETFKEKDTYKLFKNGTLKIKHLKTDDQDIYKVSIYDTKGKNVLEKIFDLKIQERVSKPKISWTCINTTLTCEVMNGTDPELNLYQDGKHLKLSQRVITHKWTTSLSAKFKCTAGNKVSKESSVEPVSCPEKGLDIYLIIGICGGGSLLMVFVALLVFYITKRKKQRSRRNDEELETRAHRVATEERGRKPHQIPASTPQNPATSQHPPPPPGHRSQAPSHRPPPPGHRVQHQPQKRPPAPSGTQVHQQKGPPLPRPRVQPKPPHGAAENSLSPSSNRVKFSRSADAPAYKQGQNQLYNELNLGRREEYDVLDKRRGRDPEMGGKPRRKNPQEGLYNELQKDKMAEAYSEIGMKGERRRGKGHDGLYQGLSTATKDTYDALHMQALPPR
peak expansion of Allo CAR-T cells compared to Allo CAR-T cells produced without a CSR (Allo CAR-T cells): a greater degree of expansion | degranulation (CD107a) against CD58 (human CD58): capable of degranulating at levels above background
